Results: patent US20190316133, “Anti-Fibrinogen Aptamers and Uses Thereof” (Laboratoire Francais du Fractionnement et des …, published 2019)

What was measured:
[1] = biological target: T1, fibrinogen (transgenic human, from milk of transgenic cows) (Homo sapiens, UniProt P02671-2;P02675;P02679 P02671-2:20-644,P02675:31-491,P02679:27-453); test: SPR; dose-dependent 125-1000 nM at pH 6.3; not eluted by 0.5 M NaCl; released at pH 7.4; conditions: tags: none; 97% purity; chain copies: 2; label: 5' biotin-triethylene glycol
T1 sequence (P02671 other isoform, or with tags, fused parts or gaps, chain 1 of 3): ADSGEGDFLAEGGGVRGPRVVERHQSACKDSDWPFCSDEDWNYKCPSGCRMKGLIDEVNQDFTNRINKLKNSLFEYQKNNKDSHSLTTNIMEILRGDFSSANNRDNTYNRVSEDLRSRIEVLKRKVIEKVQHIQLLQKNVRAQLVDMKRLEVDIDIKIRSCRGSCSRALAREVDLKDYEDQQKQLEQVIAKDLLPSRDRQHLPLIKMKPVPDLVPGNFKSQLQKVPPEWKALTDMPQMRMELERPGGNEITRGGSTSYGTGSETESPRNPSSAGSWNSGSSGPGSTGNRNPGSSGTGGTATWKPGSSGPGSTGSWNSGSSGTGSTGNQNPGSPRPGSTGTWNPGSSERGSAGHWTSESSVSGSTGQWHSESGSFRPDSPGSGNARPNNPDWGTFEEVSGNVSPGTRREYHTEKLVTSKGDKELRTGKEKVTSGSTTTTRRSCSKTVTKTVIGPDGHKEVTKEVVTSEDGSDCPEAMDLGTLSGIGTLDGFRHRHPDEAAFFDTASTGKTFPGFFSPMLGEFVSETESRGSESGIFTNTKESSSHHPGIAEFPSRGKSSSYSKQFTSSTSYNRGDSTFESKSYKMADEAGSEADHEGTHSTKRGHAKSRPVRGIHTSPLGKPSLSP
T1 sequence (P02675 31-491, chain 2 of 3): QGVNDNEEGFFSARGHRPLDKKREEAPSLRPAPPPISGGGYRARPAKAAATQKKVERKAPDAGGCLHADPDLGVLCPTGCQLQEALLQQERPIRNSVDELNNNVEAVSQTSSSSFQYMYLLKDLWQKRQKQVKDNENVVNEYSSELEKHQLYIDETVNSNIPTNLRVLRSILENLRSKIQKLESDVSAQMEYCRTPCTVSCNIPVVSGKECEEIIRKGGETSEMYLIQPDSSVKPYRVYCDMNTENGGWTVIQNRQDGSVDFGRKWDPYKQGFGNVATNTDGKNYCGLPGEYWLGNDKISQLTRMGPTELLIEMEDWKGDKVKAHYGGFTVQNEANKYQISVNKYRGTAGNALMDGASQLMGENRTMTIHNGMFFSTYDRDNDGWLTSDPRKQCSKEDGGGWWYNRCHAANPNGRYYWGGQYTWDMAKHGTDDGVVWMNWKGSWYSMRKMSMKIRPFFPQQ
T1 sequence (P02679 27-453, chain 3 of 3): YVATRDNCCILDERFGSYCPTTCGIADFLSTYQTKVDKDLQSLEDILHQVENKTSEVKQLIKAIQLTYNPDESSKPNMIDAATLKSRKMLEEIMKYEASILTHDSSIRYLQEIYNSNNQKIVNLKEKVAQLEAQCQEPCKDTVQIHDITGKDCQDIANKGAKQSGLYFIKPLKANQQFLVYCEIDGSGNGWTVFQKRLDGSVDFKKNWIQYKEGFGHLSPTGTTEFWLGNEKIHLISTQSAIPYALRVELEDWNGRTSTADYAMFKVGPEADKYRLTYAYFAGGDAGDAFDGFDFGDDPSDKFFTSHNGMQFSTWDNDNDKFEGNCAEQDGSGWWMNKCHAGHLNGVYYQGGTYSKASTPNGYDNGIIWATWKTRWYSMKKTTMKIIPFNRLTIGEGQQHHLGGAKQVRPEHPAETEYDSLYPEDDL
Method: (§1) Each solution of transgenic fibrinogen was injected at pH 6.3 whereby a complex was formed in a dose-dependent manner as evidenced by the increase of the signals depending on the concentration of fibrinogen. […] Fibrinogen was then released from the complex by an elution buffer at pH 7.40. The solid support was then regenerated by injecting a solution of NaOH at 50 mM. X-axis: time in s. Y-axis: SPR response in arbitrary scale
(§2) The selected aptamer was synthetized with Biotin and a triethylene glycol spacer at the 5′ end of the oligonucleotide. A 1 μM solution of the aptamer was prepared using the SELEX selection buffer. The aptamer solution was heated to 90° C. for 5 min, incubated on ice for 5 min and equilibrated to room temperature for 10 min. The preparation was injected on a streptavidin coated sensor chip SA of Biacore T200 instrument (GE Healthcare) at a flow rate of 10 μl/min for 7 min. Then, different concentrations of the target were injected to the immobilised aptamer at 30 μl/min for 1 minute. After dissociation for 1-2 min a wash step was performed by injecting a suitable wash buffer at 30 μl/min for 1 min. For elution, a suitable elution buffer was injected at 30 μl/min for 1-2 min. Finally the sensor chip was regenerated by injection of 50 mM NaOH at 30 μl/min for 30 sec. During the course of the experiment the response signal was recorded in a sensorgram.

[2] = biological target: T1, fibrinogen (transgenic human, from milk …); test: SPR; high affinity stated; conditions: tags: none; 97% purity; chain copies: 2; label: 5' biotin-triethylene glycol
Method: as §2

[3] = biological target: T1, fibrinogen (transgenic human, from milk …); test: SPR; dose-dependent 125-1000 nM at pH 6.3; not eluted by 1 M NaCl; released at pH 7.4 with 2 M MgCl2; conditions: tags: none; 97% purity; chain copies: 2; label: 5' biotin-triethylene glycol
Method: as §1, with “7.40 and containing MgCl₂ at 2M.” for “7.40.”, “scale.” for “scale”
as §2, with “Finally the sensor chip was regenerated by injection of 50 mM NaOH at 30 μl/min for 30 sec.” left out

[4] = biological target: T1, fibrinogen (transgenic human, from milk …); test: SPR; high affinity; pH-dependent; conditions: tags: none; 97% purity; chain copies: 2
Method: as §2
The core sequences of aptamers SEQ ID NO:1 and SEQ ID NO:58 (namely the minimal sequence binding to fibrinogen) were determined. The aptamer of SEQ ID NO:66 corresponds to the core sequence of aptamer of SEQ ID NO:1. The aptamer of SEQ ID NO:67 is the core sequence of aptamer of SEQ ID NO:58. FIGS. 3A-3D show the binding profile obtained for the core sequences of aptamers of SEQ ID NO:1 and NO:58 by SPR. […]

Binder	binding result [2]	binding result [4]	further results
A5-1.9 (core of SEQ ID NO:1) (ssDNA) DNA: GGGTCAATGCCAGGTCTCGGACCTGGAATCCGCCACCCGCATTAGAACCAGGGTTGAC	–	–	binding result [1]: binds
SEQ ID NO:60 aptamer (ssDNA) DNA: GGGTCAATGCCAGGTCTCTGCGTACTTATCTCGATGTGGTTGGTAGGGATAGGTGTATATCGGCTCGCAAGCAGTC	binds	–	–
SEQ ID NO:65 aptamer (ssDNA) DNA: GGGTCAATGCCAGGTCTCGAGCCGGTGTTGTGTTATGTTGGTAGGGAAGGTGTATAATATCGGCTCGCAAGCAGTC	binds	–	–
CGCGTGTGGTTGGTAGGGCTAGGTGTATACGCAT (ssDNA) [A5-2.9 (core of SEQ ID NO:58)]	–	–	binding result [3]: binds
SEQ ID NO:1 aptamer (ssDNA) DNA: GGGTCAATGCCAGGTCTCGGACCTGGAATCCGCCACCCGCATTAGAACCAGGGTTGACATCGGCTCGCAAGCAGTC	–	binds	–
SEQ ID NO:58 aptamer (ssDNA) DNA: GGGTCAATGCCAGGTCTCAACTTTCGCGTGTGGTTGGTAGGGCTAGGTGTATACGCATATCGGCTCGCAAGCAGTC	–	binds	–
